T1: E-selectin/IgG-Fc chimera (human, UniProt P16581 22-556)
T1 sequence: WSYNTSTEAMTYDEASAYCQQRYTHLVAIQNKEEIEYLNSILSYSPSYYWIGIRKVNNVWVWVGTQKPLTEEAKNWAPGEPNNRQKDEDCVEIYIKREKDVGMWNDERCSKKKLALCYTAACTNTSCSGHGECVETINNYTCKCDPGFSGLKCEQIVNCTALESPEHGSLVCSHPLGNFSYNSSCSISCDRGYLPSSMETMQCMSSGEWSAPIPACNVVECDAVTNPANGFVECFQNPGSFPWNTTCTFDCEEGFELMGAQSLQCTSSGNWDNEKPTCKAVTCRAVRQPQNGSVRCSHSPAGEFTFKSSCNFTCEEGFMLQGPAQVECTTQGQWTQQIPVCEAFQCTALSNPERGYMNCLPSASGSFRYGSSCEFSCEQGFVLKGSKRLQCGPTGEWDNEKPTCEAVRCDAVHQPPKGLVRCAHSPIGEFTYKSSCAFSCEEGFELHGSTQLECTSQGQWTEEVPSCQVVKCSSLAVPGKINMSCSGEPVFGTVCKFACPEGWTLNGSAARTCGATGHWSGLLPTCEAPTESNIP

B1: SDA (ssDNA)
DNA: GCCTGTTGTGAGCCTCCTAACGATTTGGATTTGGGGTGGAGGGTATGGTTTGTGCTGGCGTTCTCATTTCCCATGCTTATTCTTGTCTCCC
B2: control DNA (ssDNA)
DNA: GCCTGTTGTGAGCCTCCTAACGAGGAGTGGGCTAAAGGTATGTTGTGGGTTTGGTTCCATGCTTATTCTTGTCTCCC

Experiments:
[1] = target: T1, E-selectin/IgG-Fc chimera; test: filter binding; 3 mM Mg2+; Selection buffer: 3 mM MgCl2 in PBS, pH 7.5 (with 1 mg/mL BSA as described for SELEX beads); room temperature, 30 min; DNA <1 nM, protein 0-1 uM; conditions: protein: commercial; tags: IgG-Fc fusion; chain copies: 2; label: 32P (T4 polynucleotide kinase)
[2] = target: P-selectin/IgG-Fc chimera (human, UniProt P16109 42-771); test: as above; conditions: protein: commercial; tags: IgG-Fc fusion; chain copies: 2; label: 32P (T4 polynucleotide kinase)
Sequence of P-selectin/IgG-Fc chimera (P16109 42-771, change not shown): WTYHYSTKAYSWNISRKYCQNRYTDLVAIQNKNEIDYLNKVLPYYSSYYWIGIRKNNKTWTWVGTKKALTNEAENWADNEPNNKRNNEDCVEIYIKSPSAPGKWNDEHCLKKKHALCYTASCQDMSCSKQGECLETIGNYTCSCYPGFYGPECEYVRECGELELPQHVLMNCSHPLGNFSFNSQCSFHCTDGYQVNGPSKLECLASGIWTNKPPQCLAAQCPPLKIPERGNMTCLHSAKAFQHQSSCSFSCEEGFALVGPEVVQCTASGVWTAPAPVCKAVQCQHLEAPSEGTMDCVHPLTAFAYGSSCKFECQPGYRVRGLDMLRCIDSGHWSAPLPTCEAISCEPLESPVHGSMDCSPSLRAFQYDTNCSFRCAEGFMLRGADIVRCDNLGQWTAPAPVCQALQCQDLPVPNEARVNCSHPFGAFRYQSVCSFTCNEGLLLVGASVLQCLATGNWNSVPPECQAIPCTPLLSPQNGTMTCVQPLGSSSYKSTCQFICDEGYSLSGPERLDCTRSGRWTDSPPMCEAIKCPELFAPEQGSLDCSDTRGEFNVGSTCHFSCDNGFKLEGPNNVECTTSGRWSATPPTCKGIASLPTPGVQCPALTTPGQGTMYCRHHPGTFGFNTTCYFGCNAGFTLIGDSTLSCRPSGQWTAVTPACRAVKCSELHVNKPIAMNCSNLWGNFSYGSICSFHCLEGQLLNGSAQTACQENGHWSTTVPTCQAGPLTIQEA

Binder	Kd [1] [nM]	Kd [2] [nM]	binding result [1]	binding result [2]
B1	98 ± 16	95 ± 18	–	–
B2	–	–	no binding	no binding

— publication PMC3974700, “SDA, a DNA Aptamer Inhibiting E- and P-Selectin Mediated Adhesion of Cancer and Leukemia Cells, the First and Pivotal Step in Transendothelial Migration during Metastasis Formation”
